Data as given in article PMC9482650, “Quantitative fragmentomics allow affinity mapping of interactomes” (Nature Communications, 2022).

Experiments:
Test in all cases: holdup assay
Design in all cases: key: below the threshold = too weak to quantify, mostly under pKd 3.1 to 4
DLG2_3, Q15700 = settings: plain residues with an end cap or a label only (N-terminal biotin on a linker: ado-ado)
MPDZ_12, O75970 = biological target: T1, MPDZ_12, O75970; settings: plain residues with an end cap or a label only (N-terminal biotin on a linker: ado-ado)
T1 sequence (O75970 1857-1958, limits assumed, looked up): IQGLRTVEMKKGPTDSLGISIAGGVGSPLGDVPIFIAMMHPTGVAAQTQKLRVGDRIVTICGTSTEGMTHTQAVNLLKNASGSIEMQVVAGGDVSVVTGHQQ

DLG4_2, P78352 = settings: plain residues with an end cap or a label only (N-terminal biotin on a linker: ado-ado)
FRMPD2_1, Q68DX3 = settings: plain residues with an end cap or a label only (N-terminal biotin on a linker: ado-ado)
DLG1_3, Q12959 = settings: plain residues with an end cap or a label only (N-terminal biotin on a linker: ado-ado)
TJP2_1, Q9UDY2 = settings: plain residues with an end cap or a label only (N-terminal biotin on a linker: ado-ado)
DLG2_2, Q15700 = biological target: DLG2_2, Q15700
NHERF4_1, Q86UT5-2 = settings: plain residues with an end cap or a label only (N-terminal biotin on a linker: ado-ado)
LIN7B, Q9HAP6 = biological target: T2, LIN7B, Q9HAP6; settings: plain residues with an end cap or a label only (N-terminal biotin on a linker: ado-ado)
T2 sequence (Q9HAP6 88-185, limits assumed, looked up): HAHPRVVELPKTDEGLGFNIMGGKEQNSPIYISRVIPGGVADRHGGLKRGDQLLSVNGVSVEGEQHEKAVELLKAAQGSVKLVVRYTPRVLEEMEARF

TJP1_3, Q07157 = settings: plain residues with an end cap or a label only (N-terminal biotin on a linker: ado-ado)
DLG3_1, Q92796 = biological target: T3, DLG3_1, Q92796; settings: plain residues with an end cap or a label only (N-terminal biotin on a linker: ado-ado)
T3 sequence (Q92796 125-227, limits assumed, looked up): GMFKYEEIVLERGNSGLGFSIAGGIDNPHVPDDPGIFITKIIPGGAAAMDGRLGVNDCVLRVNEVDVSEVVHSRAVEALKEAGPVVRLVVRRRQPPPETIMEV

IL16_3, Q14005 = settings: plain residues with an end cap or a label only (N-terminal biotin on a linker: ado-ado)
GRIP1_5, Q9Y3R0 = biological target: T4, GRIP1_5, Q9Y3R0; settings: plain residues with an end cap or a label only (N-terminal biotin on a linker: ado-ado)
T4 sequence (Q9Y3R0 568-668, limits assumed, looked up): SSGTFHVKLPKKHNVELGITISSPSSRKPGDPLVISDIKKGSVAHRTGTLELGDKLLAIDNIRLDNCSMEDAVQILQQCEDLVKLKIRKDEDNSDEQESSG

ARHGAP21, Q5T5U3 = biological target: T5, ARHGAP21, Q5T5U3; settings: plain residues with an end cap or a label only (N-terminal biotin on a linker: ado-ado)
T5 sequence (Q5T5U3 45-169, limits assumed, looked up): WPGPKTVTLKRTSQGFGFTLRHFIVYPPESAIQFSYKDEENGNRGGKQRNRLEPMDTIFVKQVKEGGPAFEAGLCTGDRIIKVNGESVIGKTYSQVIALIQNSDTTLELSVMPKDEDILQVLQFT

GORASP2, Q9H8Y8 = settings: plain residues with an end cap or a label only (N-terminal biotin on a linker: ado-ado)
SHANK1, Q9Y566 = biological target: T6, SHANK1, Q9Y566; settings: plain residues with an end cap or a label only (N-terminal biotin on a linker: ado-ado)
T6 sequence (Q9Y566 658-767, limits assumed, looked up): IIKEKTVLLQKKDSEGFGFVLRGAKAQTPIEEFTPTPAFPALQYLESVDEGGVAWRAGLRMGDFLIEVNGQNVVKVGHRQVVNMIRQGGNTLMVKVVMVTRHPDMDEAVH

LNX1_1, Q8TBB1 = biological target: LNX1_1, Q8TBB1
MPDZ_10, O75970 = biological target: T7, MPDZ_10, O75970; settings: plain residues with an end cap or a label only (N-terminal biotin on a linker: ado-ado)
T7 sequence (O75970 1624-1722, limits assumed, looked up): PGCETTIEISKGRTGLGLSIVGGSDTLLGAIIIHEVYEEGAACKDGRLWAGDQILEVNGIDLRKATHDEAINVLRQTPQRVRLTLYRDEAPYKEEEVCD

HTRA1, Q92743 = biological target: HTRA1, Q92743
APBA3_1, O96018 = settings: plain residues with an end cap or a label only
MAGI2_5, Q86UL8 = settings: plain residues with an end cap or a label only (N-terminal biotin on a linker: ahx)
SYNJ2BP, P57105 = biological target: T8, SYNJ2BP, P57105
T8 sequence (P57105 8-110, limits assumed, looked up): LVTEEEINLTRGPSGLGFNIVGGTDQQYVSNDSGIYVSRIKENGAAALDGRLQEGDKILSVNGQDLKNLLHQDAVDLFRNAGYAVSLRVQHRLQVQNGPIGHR

APBA1_2, Q02410 = biological target: T9, APBA1_2, Q02410; settings: plain residues with an end cap or a label only (N-terminal biotin on a linker: ahx)
T9 sequence (Q02410 742-832, limits assumed, looked up): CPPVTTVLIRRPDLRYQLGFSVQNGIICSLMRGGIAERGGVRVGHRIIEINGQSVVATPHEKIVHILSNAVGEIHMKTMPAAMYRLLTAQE

DLG1_2, Q12959 = settings: plain residues with an end cap or a label only (N-terminal biotin on a linker: ahx)
MAGI2_6, Q86UL8 = settings: plain residues with an end cap or a label only (N-terminal biotin on a linker: ahx)
GIPC2, Q8TF65 = biological target: GIPC2, Q8TF65
ARHGEF11, O15085 = biological target: T10, ARHGEF11, O15085; settings: plain residues with an end cap or a label only (N-terminal biotin on a linker: ahx)
T10 sequence (O15085 42-136, limits assumed, looked up): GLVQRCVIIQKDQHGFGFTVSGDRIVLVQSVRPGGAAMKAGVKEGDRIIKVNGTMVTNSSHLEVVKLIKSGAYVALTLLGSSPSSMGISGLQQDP

MAGI1_2, Q96QZ7 = biological target: MAGI1_2, Q96QZ7
TIAM2, Q8IVF5 = biological target: T11, TIAM2, Q8IVF5
T11 sequence (Q8IVF5 885-986, limits assumed, looked up): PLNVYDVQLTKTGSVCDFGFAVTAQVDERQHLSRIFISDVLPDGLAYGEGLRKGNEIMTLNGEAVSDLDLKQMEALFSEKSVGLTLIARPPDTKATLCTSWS

GRID2IP_2, A4D2P6 = biological target: GRID2IP_2, A4D2P6
ARHGEF12, Q9NZN5-2 = settings: plain residues with an end cap or a label only (N-terminal biotin on a linker: ahx)
Inadl_10, Q8NI35 = settings: plain residues with an end cap or a label only (N-terminal biotin on a linker: ahx)
MAST1, Q9Y2H9 = biological target: MAST1, Q9Y2H9
GRASP, Q7Z6J2 = settings: plain residues with an end cap or a label only (N-terminal biotin on a linker: ahx)
NOS1, P29475 = settings: plain residues with an end cap or a label only (N-terminal biotin on a linker: ahx)
IL16_1, Q14005 = settings: plain residues with an end cap or a label only (N-terminal biotin on a linker: ahx)
PDZD7_3, Q9H5P4 = biological target: T12, PDZD7_3, Q9H5P4; settings: plain residues with an end cap or a label only (N-terminal biotin on a linker: ado-ado)
T12 sequence (Q9H5P4 857-944, limits assumed, looked up): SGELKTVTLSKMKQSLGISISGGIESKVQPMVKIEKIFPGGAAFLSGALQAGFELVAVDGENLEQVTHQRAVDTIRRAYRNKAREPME

HTRA3, P83110 = biological target: T13, HTRA3, P83110; settings: plain residues with an end cap or a label only (N-terminal biotin on a linker: ado-ado)
T13 sequence (P83110 354-453, limits assumed, looked up): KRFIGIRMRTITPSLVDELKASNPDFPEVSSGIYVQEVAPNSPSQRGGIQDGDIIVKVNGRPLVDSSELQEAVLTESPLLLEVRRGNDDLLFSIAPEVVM

DFNB31_3, Q9P202 = biological target: T14, DFNB31_3, Q9P202; settings: plain residues with an end cap or a label only (N-terminal biotin on a linker: ado-ado)
T14 sequence (Q9P202 811-907, limits assumed, looked up): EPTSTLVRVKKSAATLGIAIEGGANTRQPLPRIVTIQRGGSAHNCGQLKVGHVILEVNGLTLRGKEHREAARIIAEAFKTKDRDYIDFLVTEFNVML

LIN7C, Q9NUP9 = biological target: T15, LIN7C, Q9NUP9; settings: plain residues with an end cap or a label only (N-terminal biotin on a linker: ado-ado)
T15 sequence (Q9NUP9 88-185, limits assumed, looked up): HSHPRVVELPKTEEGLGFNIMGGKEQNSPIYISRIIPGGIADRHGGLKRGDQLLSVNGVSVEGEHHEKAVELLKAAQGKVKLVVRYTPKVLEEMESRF

PTPN3, P26045 = settings: plain residues with an end cap or a label only (N-terminal biotin on a linker: ado-ado)
MPP6, Q9NZW5 = biological target: T16, MPP6, Q9NZW5; settings: plain residues with an end cap or a label only (N-terminal biotin on a linker: ado-ado)
T16 sequence (Q9NZW5 125-219, limits assumed, looked up): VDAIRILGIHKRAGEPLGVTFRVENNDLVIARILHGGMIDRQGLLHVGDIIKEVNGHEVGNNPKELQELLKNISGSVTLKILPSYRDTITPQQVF

[1] = plain residues with an end cap or a label only (N-terminal biotin on a linker: ado-ado)
[2] = plain residues with an end cap or a label only (N-terminal biotin on a linker: ahx)

Sequence of NHERF4_1, Q86UT5-2 (Q86UT5 other isoform, or with tags, fused parts or gaps): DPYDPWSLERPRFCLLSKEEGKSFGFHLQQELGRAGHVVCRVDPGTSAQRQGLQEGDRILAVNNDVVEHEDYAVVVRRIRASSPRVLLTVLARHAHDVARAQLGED
Sequence of GRID2IP_2, A4D2P6 (A4D2P6 272-370): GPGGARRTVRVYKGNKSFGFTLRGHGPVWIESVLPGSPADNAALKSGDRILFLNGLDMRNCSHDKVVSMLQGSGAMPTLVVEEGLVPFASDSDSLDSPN
Sequence of GIPC2, Q8TF65 (Q8TF65 112-203): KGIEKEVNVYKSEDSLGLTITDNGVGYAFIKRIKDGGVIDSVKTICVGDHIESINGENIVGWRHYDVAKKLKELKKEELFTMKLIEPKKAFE
Sequence of HTRA1, Q92743 (Q92743 360-477): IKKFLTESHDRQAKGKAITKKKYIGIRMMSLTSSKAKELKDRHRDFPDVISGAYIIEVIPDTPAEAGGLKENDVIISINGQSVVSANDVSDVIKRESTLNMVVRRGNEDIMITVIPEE
Sequence of MAST1, Q9Y2H9 (Q9Y2H9 962-1065): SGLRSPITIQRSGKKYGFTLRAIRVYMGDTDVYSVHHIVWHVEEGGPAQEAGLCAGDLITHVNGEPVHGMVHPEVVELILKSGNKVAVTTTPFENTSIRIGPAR
Sequence of MAGI1_2, Q96QZ7 (Q96QZ7 456-580): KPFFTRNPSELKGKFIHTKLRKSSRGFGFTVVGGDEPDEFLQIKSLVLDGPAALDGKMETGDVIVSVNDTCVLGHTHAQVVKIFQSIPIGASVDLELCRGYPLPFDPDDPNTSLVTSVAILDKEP
Sequence of LNX1_1, Q8TBB1 (Q8TBB1 261-371): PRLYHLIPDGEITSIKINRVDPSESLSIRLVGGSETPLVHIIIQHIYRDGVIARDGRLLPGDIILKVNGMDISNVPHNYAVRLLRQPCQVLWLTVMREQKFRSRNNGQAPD
Sequence of IL16_3, Q14005 (Q14005 1107-1207): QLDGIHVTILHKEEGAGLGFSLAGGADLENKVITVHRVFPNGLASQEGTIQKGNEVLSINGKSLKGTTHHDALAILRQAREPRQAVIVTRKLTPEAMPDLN
Sequence of MAGI2_5, Q86UL8 (Q86UL8 915-1017): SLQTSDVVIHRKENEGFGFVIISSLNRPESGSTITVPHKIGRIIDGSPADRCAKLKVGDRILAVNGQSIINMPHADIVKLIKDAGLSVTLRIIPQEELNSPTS
Sequence of IL16_1, Q14005 (Q14005 210-306): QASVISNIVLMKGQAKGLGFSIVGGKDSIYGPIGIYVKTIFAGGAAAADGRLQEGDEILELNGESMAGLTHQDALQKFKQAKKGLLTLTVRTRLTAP
Sequence of DLG1_3, Q12959 (Q12959 457-571): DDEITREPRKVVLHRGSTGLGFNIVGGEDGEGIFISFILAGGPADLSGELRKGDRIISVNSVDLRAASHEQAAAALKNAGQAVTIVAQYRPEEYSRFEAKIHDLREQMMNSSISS
Sequence of APBA3_1, O96018 (O96018 other isoform, or with tags, fused parts or gaps): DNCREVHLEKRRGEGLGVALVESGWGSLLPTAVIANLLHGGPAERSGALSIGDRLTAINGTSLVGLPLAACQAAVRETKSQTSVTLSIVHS
Sequence of DLG4_2, P78352 (P78352 155-259): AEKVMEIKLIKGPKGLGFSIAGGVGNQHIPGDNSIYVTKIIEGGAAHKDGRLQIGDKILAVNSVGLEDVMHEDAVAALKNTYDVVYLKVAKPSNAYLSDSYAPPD
Sequence of GRASP, Q7Z6J2 (Q7Z6J2 96-193): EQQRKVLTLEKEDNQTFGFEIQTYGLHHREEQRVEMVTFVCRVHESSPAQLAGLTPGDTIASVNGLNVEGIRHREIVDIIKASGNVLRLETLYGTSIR
Sequence of ARHGEF12, Q9NZN5-2 (Q9NZN5 other isoform, or with tags, fused parts or gaps): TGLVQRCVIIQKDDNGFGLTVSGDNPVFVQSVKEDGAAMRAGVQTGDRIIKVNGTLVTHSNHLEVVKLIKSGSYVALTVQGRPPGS
Sequence of Inadl_10, Q8NI35 (Q8NI35 1673-1763): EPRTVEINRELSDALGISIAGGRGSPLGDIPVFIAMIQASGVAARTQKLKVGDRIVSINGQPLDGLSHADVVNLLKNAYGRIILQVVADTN
Sequence of NOS1, P29475 (P29475 9-101): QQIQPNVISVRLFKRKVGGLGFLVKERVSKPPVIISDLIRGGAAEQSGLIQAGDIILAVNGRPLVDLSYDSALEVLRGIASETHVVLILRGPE
Sequence of DLG1_2, Q12959 (Q12959 314-412): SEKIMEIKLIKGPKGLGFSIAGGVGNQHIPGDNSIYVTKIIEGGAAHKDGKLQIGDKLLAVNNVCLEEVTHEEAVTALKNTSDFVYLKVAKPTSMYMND
Sequence of TJP1_3, Q07157 (Q07157 416-512): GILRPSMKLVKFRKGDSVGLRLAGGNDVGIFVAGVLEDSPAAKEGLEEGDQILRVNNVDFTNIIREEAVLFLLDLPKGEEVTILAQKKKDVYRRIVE
Sequence of FRMPD2_1, Q68DX3 (Q68DX3 770-861): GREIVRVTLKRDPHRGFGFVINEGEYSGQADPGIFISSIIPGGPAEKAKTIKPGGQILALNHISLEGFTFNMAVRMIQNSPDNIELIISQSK
Sequence of TJP2_1, Q9UDY2 (Q9UDY2 24-128): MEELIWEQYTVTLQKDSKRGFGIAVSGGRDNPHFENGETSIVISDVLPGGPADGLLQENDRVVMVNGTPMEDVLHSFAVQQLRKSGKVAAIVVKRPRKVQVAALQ
Sequence of PTPN3, P26045 (P26045 505-587): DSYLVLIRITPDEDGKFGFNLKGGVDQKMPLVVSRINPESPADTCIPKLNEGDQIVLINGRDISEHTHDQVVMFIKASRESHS
Sequence of MAGI2_6, Q86UL8 (Q86UL8 1141-1229): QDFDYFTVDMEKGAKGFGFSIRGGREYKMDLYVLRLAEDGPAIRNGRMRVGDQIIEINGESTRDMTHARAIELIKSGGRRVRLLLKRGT

## EYRKDNKVAA [LSM14A, Q8ND56]
DLG2_3, Q15700
  pKd: 3.88
MPDZ_12, O75970
  pKd: 3.68
DLG4_2, P78352
  pKd: 3.71
FRMPD2_1, Q68DX3
  pKd: 3.68
DLG1_3, Q12959
  pKd: 3.64
TJP2_1, Q9UDY2
  pKd: 3.57
DLG2_2, Q15700; [1]
  pKd: 3.54
NHERF4_1, Q86UT5-2
  pKd: 3.61
LIN7B, Q9HAP6
  pKd: 3.83
TJP1_3, Q07157
  pKd: 3.53
DLG3_1, Q92796
  pKd: 3.55
IL16_3, Q14005
  pKd: 3.51
GRIP1_5, Q9Y3R0
  pKd: 3.6
ARHGAP21, Q5T5U3
  pKd: 3.67
GORASP2, Q9H8Y8
  pKd: 3.52
SHANK1, Q9Y566
  pKd: 3.51
LNX1_1, Q8TBB1; [1]
  pKd: 3.82
MPDZ_10, O75970
  pKd: 3.68
HTRA1, Q92743; [1]
  pKd: 3.67

## RRSQSPSANC [a stretch of P69709, P69709]
APBA3_1, O96018
  pKd: below the threshold

## LCKSHAFSHV [PDLIM7, Q9NR12]
MAGI2_5, Q86UL8
  pKd: 3.86
SYNJ2BP, P57105; [2]
  pKd: 3.7
APBA1_2, Q02410
  pKd: 3.83
DLG1_2, Q12959
  pKd: 3.48
MAGI2_6, Q86UL8
  pKd: 3.61
GIPC2, Q8TF65; [2]
  pKd: 3.67
DLG2_2, Q15700; [2]
  pKd: 3.56
ARHGEF11, O15085
  pKd: 3.48
MAGI1_2, Q96QZ7; [2]
  pKd: 3.9
TIAM2, Q8IVF5; [2]
  pKd: 3.48
GRID2IP_2, A4D2P6; [2]
  pKd: 3.62
ARHGEF12, Q9NZN5-2
  pKd: 3.55
Inadl_10, Q8NI35
  pKd: 3.52
MAST1, Q9Y2H9; [2]
  pKd: 3.75
LNX1_1, Q8TBB1; [2]
  pKd: 3.51
GRASP, Q7Z6J2
  pKd: 3.65
NOS1, P29475
  pKd: 3.48
HTRA1, Q92743; [2]
  pKd: 3.68
IL16_1, Q14005
  pKd: 3.51

## KSTTRSSSSC [NDE1, Q9NXR1]
DLG2_3, Q15700
  pKd: 3.58
SYNJ2BP, P57105; [1]
  pKd: 3.76
GIPC2, Q8TF65; [1]
  pKd: 3.64
NHERF4_1, Q86UT5-2
  pKd: 3.85
LIN7B, Q9HAP6
  pKd: 3.64
MAGI1_2, Q96QZ7; [1]
  pKd: 3.71
PDZD7_3, Q9H5P4
  pKd: 3.73
TIAM2, Q8IVF5; [1]
  pKd: 3.85
GRID2IP_2, A4D2P6; [1]
  pKd: 3.59
HTRA3, P83110
  pKd: 3.74
DFNB31_3, Q9P202
  pKd: 3.75
MAST1, Q9Y2H9; [1]
  pKd: 3.61
LIN7C, Q9NUP9
  pKd: 3.88
PTPN3, P26045
  pKd: 3.52
MPP6, Q9NZW5
  pKd: 3.6
